Measurements reported in article PMC9019020, “Low complexity RGG-motif sequence is required for Processing body (P-body) disassembly” (Nature Communications, 2022).

Target: T1, His-Edc3-mCherry (S. cerevisiae, UniProt P39998 1-551)
T1 construct: Edc3, P-body protein of S. cerevisiae with Lsm, FDF and YjeF-N domains; full length; also called full-length Edc3; purified Edc3; source: E. coli BL21, purified (Ni-NTA agarose, batch; RNase A added during purification); not shown: His, N-terminal, kept; mCherry, C-terminal, kept
T1 sequence (looked up): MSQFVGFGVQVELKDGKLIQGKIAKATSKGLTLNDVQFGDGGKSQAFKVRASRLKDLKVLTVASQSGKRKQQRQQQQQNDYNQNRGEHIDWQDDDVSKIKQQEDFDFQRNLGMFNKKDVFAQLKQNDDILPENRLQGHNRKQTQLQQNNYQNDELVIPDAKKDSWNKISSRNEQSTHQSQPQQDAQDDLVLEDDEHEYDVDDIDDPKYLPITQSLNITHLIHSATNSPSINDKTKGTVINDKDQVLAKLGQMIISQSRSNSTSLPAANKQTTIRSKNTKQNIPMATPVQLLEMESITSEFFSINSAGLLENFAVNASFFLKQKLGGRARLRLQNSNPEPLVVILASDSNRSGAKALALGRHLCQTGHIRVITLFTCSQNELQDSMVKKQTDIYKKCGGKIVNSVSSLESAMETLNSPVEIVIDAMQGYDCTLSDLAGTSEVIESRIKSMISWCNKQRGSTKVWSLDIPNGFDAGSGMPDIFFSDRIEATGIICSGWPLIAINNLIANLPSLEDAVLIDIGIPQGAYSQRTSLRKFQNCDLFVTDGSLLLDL
Test: pull-down; RFP magnetic agarose beads (Chromotek) capture Edc3-mCherry; 100 pmol of each purified protein; 4 °C, 2 h; 50 mM HEPES pH 7, 100 mM NaCl, 1 mM DTT, 2 mM MnCl2, 2 mM MgCl2, 1% Triton-X100, 10% glycerol, 0.25 mg/mL RNase A; western blot
Conditions: both partners purified

B1: His-Sbp1-FLAG (natural protein, S. cerevisiae, UniProt P10080 1-294, looked up)
chain: MSAEIEEATNAVNNLSINDSEQQPRAPTHKTVIDPEDTIFIGNVAHECTEDDLKQLFVEEFGDEVSVEIPIKEHTDGHIPASKHALVKFPTKIDFDNIKENYDTKVVKDREIHIKRARTPGQMQRGGFRGRGGFRGRGGFRGGFRGGYRGGFRGRGNFRGRGGARGGFNGQKREKIPLDQMERSKDTLYINNVPFKATKEEVAEFFGTDADSISLPMRKMRDQHTGRIFTSDSANRGMAFVTFSGENVDIEAKAEEFKGKVFGDRELTVDVAVIRPENDEEEIEQETGSEEKQE
notes: Sbp1, RGG-motif containing translation repressor of S. cerevisiae; wild type; also called wild-type Sbp1; purified Sbp1; source: E. coli BL21, purified (Ni-NTA agarose, batch; RNase A added during purification); not shown: His, N-terminal, kept; FLAG, C-terminal, kept
binding result: binds
